Laboratory results reported in publication PMC4167924.
Blank lines part the entries; values can stand above or below the binder they belong to.

Molecular target: adaptor protein 1A complex (AP-1A; γ/β1/μ1A/σ1), endogenous, mouse (mouse (endogenous in pituitary and in AtT-20)) (UniProt P22892)
Test: co-IP

Chain of UniProt P22892 (P22892 whole entry, chain 1 of 4): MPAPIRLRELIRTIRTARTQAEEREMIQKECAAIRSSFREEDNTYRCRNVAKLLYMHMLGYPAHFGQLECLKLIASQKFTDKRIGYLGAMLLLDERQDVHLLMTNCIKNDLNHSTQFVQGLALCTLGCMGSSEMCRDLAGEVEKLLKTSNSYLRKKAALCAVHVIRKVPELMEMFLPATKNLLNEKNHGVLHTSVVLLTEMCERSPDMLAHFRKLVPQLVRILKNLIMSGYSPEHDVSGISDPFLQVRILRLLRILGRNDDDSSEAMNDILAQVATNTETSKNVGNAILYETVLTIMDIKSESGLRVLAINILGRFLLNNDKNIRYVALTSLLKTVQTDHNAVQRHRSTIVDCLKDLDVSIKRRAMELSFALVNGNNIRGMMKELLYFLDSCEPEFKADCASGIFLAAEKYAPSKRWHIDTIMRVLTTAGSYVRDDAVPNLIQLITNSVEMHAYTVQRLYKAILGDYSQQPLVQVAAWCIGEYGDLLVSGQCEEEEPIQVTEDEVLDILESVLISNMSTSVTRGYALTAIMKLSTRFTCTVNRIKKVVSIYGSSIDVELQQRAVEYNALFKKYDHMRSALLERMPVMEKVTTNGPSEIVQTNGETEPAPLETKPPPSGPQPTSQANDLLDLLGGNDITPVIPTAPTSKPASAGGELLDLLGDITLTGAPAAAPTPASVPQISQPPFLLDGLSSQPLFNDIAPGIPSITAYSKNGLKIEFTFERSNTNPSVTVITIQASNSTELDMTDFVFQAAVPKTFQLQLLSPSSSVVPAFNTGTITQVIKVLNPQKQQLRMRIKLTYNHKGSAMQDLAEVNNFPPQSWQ
Chain of UniProt P22892 (O35643 whole entry, chain 2 of 4, further chain): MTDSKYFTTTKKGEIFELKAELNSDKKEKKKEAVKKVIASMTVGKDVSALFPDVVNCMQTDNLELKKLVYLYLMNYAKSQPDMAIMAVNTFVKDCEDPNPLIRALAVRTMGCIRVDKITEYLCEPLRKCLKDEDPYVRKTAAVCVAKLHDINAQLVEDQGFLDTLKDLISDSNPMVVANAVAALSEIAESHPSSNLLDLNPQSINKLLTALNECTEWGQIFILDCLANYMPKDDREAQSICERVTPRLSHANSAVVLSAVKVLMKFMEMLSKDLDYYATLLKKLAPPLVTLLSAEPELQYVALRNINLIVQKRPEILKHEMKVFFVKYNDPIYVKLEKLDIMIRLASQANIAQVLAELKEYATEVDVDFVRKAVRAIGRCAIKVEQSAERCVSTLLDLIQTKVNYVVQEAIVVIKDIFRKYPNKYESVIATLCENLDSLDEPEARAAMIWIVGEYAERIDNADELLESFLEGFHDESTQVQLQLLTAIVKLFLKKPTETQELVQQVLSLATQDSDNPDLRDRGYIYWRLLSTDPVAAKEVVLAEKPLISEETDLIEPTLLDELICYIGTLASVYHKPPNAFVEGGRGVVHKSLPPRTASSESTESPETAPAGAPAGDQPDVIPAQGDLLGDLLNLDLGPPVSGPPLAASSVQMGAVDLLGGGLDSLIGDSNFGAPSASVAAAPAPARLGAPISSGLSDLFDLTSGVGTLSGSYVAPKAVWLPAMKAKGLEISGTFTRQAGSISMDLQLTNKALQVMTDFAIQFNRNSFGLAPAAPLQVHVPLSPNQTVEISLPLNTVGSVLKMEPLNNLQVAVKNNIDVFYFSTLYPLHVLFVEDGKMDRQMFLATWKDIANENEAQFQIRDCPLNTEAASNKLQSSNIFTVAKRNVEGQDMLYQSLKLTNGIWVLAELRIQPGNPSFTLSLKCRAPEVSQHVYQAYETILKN
Chain of UniProt P22892 (P35585 whole entry, chain 3 of 4, further chain): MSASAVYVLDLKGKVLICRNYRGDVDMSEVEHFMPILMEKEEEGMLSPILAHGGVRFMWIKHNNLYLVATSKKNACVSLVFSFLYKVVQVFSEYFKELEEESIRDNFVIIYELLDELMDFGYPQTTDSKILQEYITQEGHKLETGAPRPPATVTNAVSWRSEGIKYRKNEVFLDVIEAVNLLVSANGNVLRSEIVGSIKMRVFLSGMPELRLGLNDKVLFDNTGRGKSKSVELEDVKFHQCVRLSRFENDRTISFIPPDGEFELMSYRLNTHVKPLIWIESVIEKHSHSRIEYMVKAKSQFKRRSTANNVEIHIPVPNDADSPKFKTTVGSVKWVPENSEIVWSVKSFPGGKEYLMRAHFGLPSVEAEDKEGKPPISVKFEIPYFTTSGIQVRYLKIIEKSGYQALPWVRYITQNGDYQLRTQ
Chain of UniProt P22892 (P61967 whole entry, chain 4 of 4, further chain): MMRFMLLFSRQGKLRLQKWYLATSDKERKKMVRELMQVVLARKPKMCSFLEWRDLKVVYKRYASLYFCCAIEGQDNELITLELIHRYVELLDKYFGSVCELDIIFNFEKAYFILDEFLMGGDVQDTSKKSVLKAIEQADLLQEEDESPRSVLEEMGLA

percent of PAM-1 co-immunoprecipitated: 2%
B1: PAM-1, stably expressed in AtT-20 cells (natural protein)
chain: FKETTRSFSNECLGTIGPVTPLDASDFALDIRMPGVTPKESDTYFCMSMRLPVDEEAFVIDFKPRASMDTVHHMLLFGCNMPSSTGSYWFCDEGTCTDKANILYAWARNAPPTRLPKGVGFRVGGETGSKYFVLQVHYGDISAFRDNHKDCSGVSVHLTRVPQPLIAGMYLMMSVDTVIPPGEKVVNADISCQYKMYPMHVFAYRVHTHHLGKVVSGYRVRNGQWTLIGRQNPQLPQAFYPVEHPVDVTFGDILAARCVFTGEGRTEATHIGGTSSDEMCNLYIMYYMEAKYALSFMTCTKNVAPDMFRTIPAEANIPIPVKPDMVMMHGHHKEAENKEKSALMQQPKQGEEEVLEQGDFYSLLSKLLGEREDVHVHKYNPTEKTESGSDLVAEIANVVQKKDLGRSDAREGAEHEEWGNAILVRDRIHRFHQLESTLRPAESRAFSFQQPGEGPWEPEPSGDFHVEEELDWPGVYLLPGQVSGVALDSKNNLVIFHRGDHVWDGNSFDSKFVYQQRGLGPIEEDTILVIDPNNAEILQSSGKNLFYLPHGLSIDTDGNYWVTDVALHQVFKLDPHSKEGPLLILGRSMQPGSDQNHFCQPTDVAVEPSTGAVFVSDGYCNSRIVQFSPSGKFVTQWGEESSGSSPRPGQFSVPHSLALVPHLDQLCVADRENGRIQCFKTDTKEFVREIKHASFGRNVFAISYIPGFLFAVNGKPYFGDQEPVQGFVMNFSSGEIIDVFKPVRKHFDMPHDIVASEDGTVYIGDAHTNTVWKFTLTEKMEHRSVKKAGIEVQEIKEAEAVVEPKVENKPTSSELQKMQEKQKLSTEPGSGVSVVLITTLLVIPVLVLLAIVMFIRWKKSRAFGDHDRKLESSSGRVLGRFRGKGSGGLNLGNFFASRKGYSRKGFDRVSTEGSDQEKDEDDGTESEEEYSAPLPKPAPSS

percent of PAM-1 co-immunoprecipitated: 3%
B2: peptidylglycine α-amidating monooxygenase-1 (PAM-1), endogenous in mouse pituitary (natural protein)
chain: FKETTRSFSNECLGTTRPITPIDSSDFTLDIRMPGVTPKESDTYFCMSMRLPVDEEAFVIDFKPRASMDTVHHMLLFGCNMPSSTGSYWFCDEGTCTDKANILYAWARNAPPTRLPKGVGFRVGGETGSKYFVLQVHYGDISAFRDNHKDCSGVSLHLTRVPQPLIAGMYLMMSVNTVIPPGEKVVNSDISCHYKMYPMHVFAYRVHTHHLGKVVSGYRVRNGQWTLIGRQSPQLPQAFYPVEHPVDVAFGDILAARCVFTGEGRTEATHIGGTSSDEMCNLYIMYYMEAKHAVSFMTCTQNVAPDMFRTIPEEANIPIPVKSDMVMIHGHHKETENKEKSALIQQPKQGEEEAFEQGDFYSLLSKLLGEREDVVHVHKYNPTEKTESGSDLVAEIANVVQKKDLGRSDAREGAEHEEGGNAILVRDRIHKFHRLESTLRPAESRALSFQQPGEGPWEPELAGDFHVEEALEWPGVYLLPGQVSGVALDSKNNLVIFHRGDHVWDGNSFDSKFVYQQRGLGPIEEDTILVIDPNKAEILQSSGKNLFYLPHGLSIDTDGNYWVTDVALHQVFKLEPRSKEGPLLVLGRSMQPGSDQNHFCQPTDVAVEPSTGAVFVSDGYCNSRIVQFSPSGKFITQWGEESSGSSPKPGQFSVPHSLALVPHLNQLCVADRENGRIQCFKTDTKEFVREIKHASFGRNVFAISYIPGFLFAVNGKPYFGDQEPVQGFVMNFSSGEIIDVFKPVRKHFDMPHDIVASEDGTVYIGDAHTNTVWKFTLTESRLEVEHRSVKKAGIEVPEIKEAEAVVEPKVKNKPTSSELQKMQEKKKLIKDPGSGVPVVLITTLLVIPVVVLLAIAMFIRWKKSRAFGDHDRKLESSSGRVLGRLRGKGSSGLNLGNFFASRKGYSRKGFDRVSTEGSDQEKDEDDGSESEEEYSAPLPTPAPSS
